In patent US20250066500A1:

Assays:
Experiment in all cases: cell-based or functional assay
TGFβ1 (R&D systems) = TGFβ1 (R&D systems) (UniProt P01137)
[1] = target: IL-2Rβ and common γ chain on 32Dβ cells
[2] = target: IL-2Rα, IL-2Rβ and common γ chain on CTLL-2 cells

Sequence of UniProt P01137 (P01137 279-390 limits assumed): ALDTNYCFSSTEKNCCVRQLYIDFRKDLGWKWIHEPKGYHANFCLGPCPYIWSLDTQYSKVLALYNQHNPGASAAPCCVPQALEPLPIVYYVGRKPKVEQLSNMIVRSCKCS

| IC50 of inhibition of TGFβ1 activity in HEK-Blue TGFβ reporter cells (QUANTI-Blue OD at 620-655 nM) (TGFβ1 (R&D systems)) [nM] | EC50 of 32Dβ cell proliferation (WST1, absorbance at 450 nM) [1] [nM] | EC50 of CTLL-2 cell proliferation (WST1, absorbance at 450 nM) [2] [nM] | Substance |
| --- | --- | --- | --- |
| 0.461 |  |  | TGFR-Fc (R&D Systems) (Fc fusion) |
|  | 0.0655 | 0.253 | recombinant IL2 (Proleukin) (from UniProt P60568 22-153) (ligand) |
|  | 0.14 | 0.548 | recombinant IL-2 (from UniProt P60568 21-153) (ligand) |
|  | 0.0106 |  | recombinant IL-15 (from UniProt P40933 49-162) (ligand) |
